Drawing on patent US6699837, this text covers B max (sites/cell) and Kd for one substance.

Assay [1] concerns the target HGF receptor (c-met) on human cell lines of the central nervous system (T98G glioblastoma, GOTO and SCCH-26 neuroblastoma) (human) (UniProt P08581). Nature of the assay: ^125I-HGF saturation binding on GOTO cells, Scatchard analysis.
The target is the same in assay [2]. Kind of assay: ^125I-HGF saturation binding on T98G cells, Scatchard analysis.
The target is the same in assay [3]. Nature of the assay: ^125I-HGF saturation binding on SCCH-26 cells, Scatchard analysis.
For assay [4] the target is unchanged. Kind of assay: ^125I-HGF binding on T98G, GOTO and SCCH-26 cells, Scatchard analysis (range told of the three cell lines).

In general, Kd refers to the equilibrium constant for the complex coming apart. The low end stands for higher affinity, the high end for lower affinity.

Chain of Human recombinant HGF (hepatocyte growth factor), radioiodinated (^125I-HGF) (P14210 32-728 limits assumed): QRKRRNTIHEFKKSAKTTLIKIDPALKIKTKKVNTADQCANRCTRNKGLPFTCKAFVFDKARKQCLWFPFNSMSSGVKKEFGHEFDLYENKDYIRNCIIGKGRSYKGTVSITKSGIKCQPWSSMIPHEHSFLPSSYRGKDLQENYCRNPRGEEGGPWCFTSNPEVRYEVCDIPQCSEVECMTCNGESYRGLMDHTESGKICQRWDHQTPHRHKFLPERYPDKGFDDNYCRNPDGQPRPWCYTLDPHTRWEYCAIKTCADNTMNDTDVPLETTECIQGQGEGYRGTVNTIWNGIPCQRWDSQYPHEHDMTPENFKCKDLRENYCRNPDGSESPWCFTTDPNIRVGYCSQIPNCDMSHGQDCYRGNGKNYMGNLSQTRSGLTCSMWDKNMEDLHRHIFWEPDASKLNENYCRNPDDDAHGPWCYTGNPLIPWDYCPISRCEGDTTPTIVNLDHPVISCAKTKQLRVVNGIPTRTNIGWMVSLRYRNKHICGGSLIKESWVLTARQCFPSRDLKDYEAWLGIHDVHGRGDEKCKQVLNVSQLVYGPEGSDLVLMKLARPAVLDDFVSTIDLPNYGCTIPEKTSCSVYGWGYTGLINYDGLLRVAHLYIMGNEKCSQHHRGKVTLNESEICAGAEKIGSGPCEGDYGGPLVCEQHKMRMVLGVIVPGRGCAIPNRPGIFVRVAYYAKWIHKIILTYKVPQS

Take “Human recombinant HGF (hepatocyte growth factor), radioiodinated (^125I-HGF) (from UniProt P14210 32-728) (ligand)”: the B max (sites/cell) was 120 sites/cell in assay [1], 540 sites/cell in assay [2] and 60 sites/cell in assay [3]. Moreover, the Kd in assay [1] is 0.03 nM; in assay [2] it was 0.031 nM; in assay [3], 0.02 nM; in assay [4], 0.03 to 0.04 nM.
